The source of these data is publication PMC6856373, “The first comprehensive phylogenetic and biochemical analysis of NADH diphosphatases reveals that the enzyme from Tuber melanosporum is highly active towards NAD^+” (Scientific Reports, 2019).

The Km is the substrate concentration at which the rate is half of its maximum. In general, kcat refers to the number of substrate molecules converted per active site and unit of time at saturation. What is called kcat/Km is the second-order rate constant that governs catalysis at low substrate concentration.

Substrate in data set [1]: NC(=O)C1=CN([C@@H]2O[C@H](COP(=O)(O)OP(=O)(O)OC[C@H]3O[C@@H](n4cnc5c(N)ncnc54)[C@H](O)[C@@H]3O)[C@@H](O)[C@H]2O)C=CC1
Put plainly: HPLC of AMP formation, initial rates, Michaelis-Menten fit. The settings on record: 50 mM Tris-HCl pH 8.0, 37 °C, 0.5 mM MnCl2. It is filed as biochemical, Tuber melanosporum. The source says:
(§1) HPLC of AMP formation, initial rates, Michaelis-Menten fit on […]

Substrate in data set [2]: NC(=O)c1ccc[n+]([C@@H]2O[C@H](COP(=O)(O)OP(=O)(O)OC[C@H]3O[C@@H](n4cnc5c(N)ncnc54)[C@H](O)[C@@H]3O)[C@@H](O)[C@H]2O)c1
The data set is described as above. It is filed as biochemical, Tuber melanosporum. The settings on record: 50 mM Tris-HCl pH 8.0, 37 °C, 0.5 mM MnCl2.
Excerpt: as §1

B1: TmNADD (Tuber melanosporum Mel28) (protein)
chain: MTQPYTATTESHKTSMLSRKFGQEIINYFSGSPLNRVSFLRSSTAFLRAALPRSKFLLMRDLEPLAASKTTLAWVGYETVRELVGNPFDTEEEEFLRGYDSRVEIPTLVFLGMNEEGTGGGGGGESFEFEGEGGKYVGGPCFALDVTEKGSLKEECEKVQEEAVKGAEGREFRKVRLDLSLVPSDAAILAQARSLLDWNNRNQFCSACGARTVSVHAGTKRICPPSDKAFQKDPEGPPFERPPCISRKGIHNIAFPRTDPTVIMAIINSTGDKVLLGRQRRWPKDFYSTLAGFCEPAESVEDAVRRETWEESGVRVGRVVIHSTQPWPYPANLMMGAIGEALPGGEEIVLKHDPELEDAQWVEVGRVRNALQESTGTPDVEVEGAIEGQLRLPPSTAIAHQLLLAVVNGFHLAKL
For B1, in data set [1], the Km worked out at 120 ± 10 µM, the kcat was found to be 10.7 ± 1.8 s⁻¹ and the kcat/Km was 89200 ± 19800 M⁻¹ s⁻¹. Besides, in data set [2], the Km amounted to 310 ± 50 µM, the turnover number (kcat) came out at 2.9 ± 0.2 s⁻¹ and the catalytic efficiency (kcat/Km) was determined as 9300 ± 1600 M⁻¹ s⁻¹.
